In patent publication US20100248978, “METHOD FOR IDENTIFYING THE INTERACTION PARTNER OF AN ACTIVE AGENT” (Bayer Cropscience AG, published 2010):

T1: p-hydroxyphenylpyruvate dioxygenase (HPPD) (Arabidopsis thaliana, UniProt P93836 P93836:1-445)
T1 sequence: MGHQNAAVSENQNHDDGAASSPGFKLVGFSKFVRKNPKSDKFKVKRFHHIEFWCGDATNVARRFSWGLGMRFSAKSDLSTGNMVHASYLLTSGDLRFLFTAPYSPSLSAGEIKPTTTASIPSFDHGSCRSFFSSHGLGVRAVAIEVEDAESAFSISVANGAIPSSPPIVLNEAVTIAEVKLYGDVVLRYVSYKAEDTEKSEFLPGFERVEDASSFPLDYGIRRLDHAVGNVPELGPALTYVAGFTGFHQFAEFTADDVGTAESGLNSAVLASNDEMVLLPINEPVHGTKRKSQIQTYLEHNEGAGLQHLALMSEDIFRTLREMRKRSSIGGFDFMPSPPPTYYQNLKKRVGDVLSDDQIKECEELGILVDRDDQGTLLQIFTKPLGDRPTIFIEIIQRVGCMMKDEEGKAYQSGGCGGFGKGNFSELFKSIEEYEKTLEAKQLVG

B1: S115A-C1 (ssRNA)
RNA: GGGAGAGGAGGGAGAUAGAUAUCAACAAUGACUAGCCGUGUAAGUGGUCUCGUACAUCCGAAAAAGACGACCCAGUUUGUCCUCACGGUGGAUGG
B2: S116D-C8 (ssRNA)
RNA: GGGAGAGGAGGGAGAUAGAUAUCAAUAAAGUCGGUGACACCACGCAUCCAAAUACCGGUACGCGGAACUAAUAGUUUGUCCUCACGGUGGAUGG
B3: S116C-C18 (ssRNA)
RNA: GGGAGAGGAGGGAGAUAGAUAUCAAUAUCGCCACGUUACGAGUACCAAGCUUUAUUUCCGCAGCCCGAUAGAGUUUGUCCUCACGGUGGAUGG
B4: S116B-C4 (ssRNA)
RNA: GGGAGAGGAGGGAGAUAGAUAUCAAGUAACAAAUGAUACUUUCCAAGCAUAAUUCAUUCGCAGCCCGAAUUAAGUUUGUCCUCACGGUGGAUGG

What was measured:
Conditions in all cases: tags: His-tag; biotinylated in the SELEX runs
[1] = molecular target: T1, p-hydroxyphenylpyruvate dioxygenase …; assay: filter; 20 mM Hepes pH 7.4, 150 mM NaCl, 3 mM MgCl2
Text: The T7-RNA polymerase promoter is underlined. The double stranded DNA template was used to transcribe the initial RNA library. The procedures to produce an RNA library and to perform a SELEX experiment are well known to a person skilled in the art and described in, e.g., Methods in Enzymology, Vol 267, Combinatorial Chemistry (1996), Abelson J. N. and Simon M. I., eds. Academic Press, San Diego. Subsequently, the complexes between target and RNA were captured on streptavidin-coated beads and unbound RNA was removed by washing with binding buffer. The bound RNA molecules were eluted by heating to 95° C. and amplified by RT-PCR and in vitro transcription before starting the next selection cycle. A nitrocellulose filter retention assay was used to determine binding of selected, radioactively labelled RNA libraries to recombinant protein (Methods in Enzymology, Vol 267, Combinatorial Chemistry, (1996), Abelson J. N. and Simon M. I., eds. Academic Press, San Diego). RNA library (−80 nM) was incubated with increasing concentrations of target protein in binding buffer and subsequently filtered through nitrocellulose filters which bind to proteins but not to RNA molecules. RNA bound to the target protein is retained within the complex on the filter and was quantified by a phosphoimager. Values were calculated as the percentage of total radiolabeled RNA in the reaction. […]

[2] = molecular target: T1, p-hydroxyphenylpyruvate dioxygenase …; assay: FP; nitrocellulose filter retention (method is filter binding)
Experimental: (§1) The bound RNA molecules were eluted by heating to 95° C. and amplified by RT-PCR and in vitro transcription before starting the next selection cycle. A nitrocellulose filter retention assay was used to determine binding of selected, radioactively labelled RNA libraries to recombinant protein (Methods in Enzymology, Vol 267, Combinatorial Chemistry, (1996), Abelson J. N. and Simon M. I., eds. Academic Press, San Diego). RNA library (−80 nM) was incubated with increasing concentrations of target protein in binding buffer and subsequently filtered through nitrocellulose filters which bind to proteins but not to RNA molecules. RNA bound to the target protein is retained within the complex on the filter and was quantified by a phosphoimager. Values were calculated as the percentage of total radiolabeled RNA in the reaction.
(§2) To determine the binding properties of individual aptamers isolated as part of the mixture of aptamers binding to HPPD in the previous example, aptamers were cloned into a vector, and 24 clones were sequenced. […]

[3] = molecular target: T1, p-hydroxyphenylpyruvate dioxygenase …; assay: filter; nitrocellulose filter retention
Experimental: as §1, §2

Binder	Kd [3] [nM]	further results
B1	–	Kd [1]: 128 nM
B2	–	Kd [2]: 120 nM
B3	832	–
B4	740	–
